The assay has as its target microtubules assembled from bovine brain tubulin (bovine) (UniProt Q6B856). In words: co-sedimentation; 0.5 μM 4R-tau with increasing taxol-stabilized microtubules, 30 min at RT, BRB80-K (BRB80 + 50 mM KCl); 230,000 x g 15 min; tau in the pellet by densitometry of Coomassie gels; hyperbolic fit; apparent Kd.

This is an account of results in PMC4421749.

Consider “4R-tau (1N4R-tau), recombinant human tau containing four microtubule-binding sites (from UniProt P10636-7 1-412) (natural protein)”, for which the Kd came to 280 nM.
